Reference: ChEMBL document CHEMBL1250451, “Mechanistic insights into a Ca2+-dependent family of alpha-mannosidases in a human gut symbiont” (Nat Chem Biol, 2010)

What was measured:
Format in all cases: protein assay
[1] = substrate: O=[N+]([O-])c1ccc(O[C@H]2O[C@H](CO)[C@@H](O)[C@H](O)[C@@H]2O)cc1; experiment: (§1) Activity of Bacteroides thetaiotaomicron GH92 alpha-mannosidase 3990 E533Q mutant assessed as as mannose release after 16 hrs by HPLC relative to wild type enzyme
[2] = substrate: OC[C@H]1O[C@H](O[C@H]2[C@@H](O)[C@H](O)[C@@H](CO)O[C@@H]2O)[C@@H](O)[C@@H](O)[C@@H]1O; experiment: as §1
[3] = substrate: O=[N+]([O-])c1ccc(O[C@H]2O[C@H](CO)[C@@H](O)[C@H](O)[C@@H]2O)c([N+](=O)[O-])c1; experiment: (§2) Ratio of Kcat to Km for Bacteroides thetaiotaomicron GH92 alpha-mannosidase 3990 E533Q mutant assessed as as mannose release after 16 hrs by HPLC relative to wild type enzyme
[4] = substrate: O=[N+]([O-])c1ccc(O[C@H]2O[C@H](CO)[C@@H](O)[C@H](O)[C@@H]2O)cc1; experiment: as §2
[5] = substrate: OC[C@H]1O[C@H](O[C@H]2[C@@H](O)[C@H](O)[C@@H](CO)O[C@@H]2O)[C@@H](O)[C@@H](O)[C@@H]1O; experiment: as §2
[6] = substrate: O=[N+]([O-])c1ccc(O[C@H]2O[C@H](CO)[C@@H](O)[C@H](O)[C@@H]2O)cc1; experiment: (§3) Activity of Bacteroides thetaiotaomicron GH92 alpha-mannosidase 3990 E585A mutant assessed as as mannose release after 16 hrs by HPLC relative to wild type enzyme
[7] = substrate: OC[C@H]1O[C@H](O[C@H]2[C@@H](O)[C@H](O)[C@@H](CO)O[C@@H]2O)[C@@H](O)[C@@H](O)[C@@H]1O; experiment: as §3
[8] = substrate: O=[N+]([O-])c1ccc(O[C@H]2O[C@H](CO)[C@@H](O)[C@H](O)[C@@H]2O)c([N+](=O)[O-])c1; experiment: (§4) Ratio of Kcat to Km for Bacteroides thetaiotaomicron GH92 alpha-mannosidase 3990 E585A mutant assessed as as mannose release after 16 hrs by HPLC relative to wild type enzyme
[9] = substrate: O=[N+]([O-])c1ccc(O[C@H]2O[C@H](CO)[C@@H](O)[C@H](O)[C@@H]2O)cc1; experiment: as §4
[10] = substrate: OC[C@H]1O[C@H](O[C@H]2[C@@H](O)[C@H](O)[C@@H](CO)O[C@@H]2O)[C@@H](O)[C@@H](O)[C@@H]1O; experiment: as §4

B1: Alpha-1,2-mannosidase (BT_3990) (Bacteroides thetaiotaomicron), Q8A0N1 E533Q (protein)
chain: MKRLLLIACILNCTLLSQAKDWTQYVNPLMGSQSTFELSTGNTYPAIARPWGMNFWTPQTGKMGDGWQYTYTANKIRGFKQTHQPSPWINDYGQFSIMPIVGQPVFDEEKRASWFAHKGEVATPYYYKVYLAEHDIVTEMTPTERAVLFRFTFPENDHSYVVVDAFDKGSYIKIIPEENKIIGYTTRNSGGVPENFKNYFIIEFDKPFTYKATVENGNLQENVAEQTTDHAGAIIGFKTRKGEQVNARIASSFISFEQAAANMNELGKDNIEQLAQKGKDAWNQVLGKIEVEGGNLDQYRTFYSCLYRSLLFPRKFYELDANGQPIHYSPYNGQVLPGYMFTDTGFWDTFRCLFPLLNLMYPSVNKEMQEGLINTYLESGFFPEWASPGHRGCMVGNNSASILVDAYMKGVKVDDIKTLYEGLIHGTENVHPEVSSTGRLGYEYYNKLGYVPYDVKINENAARTLEYAYDDWCIYRLAKELKRPKKEISLFAKRAMNYKNLFDKESKLMRGRNEDGTFQSPFSPLKWGDAFTQGNSWHYTWSVFHDPQGLIDLMGGKEMFVTMMDSVFAVPPIFDDSYYGQVIHEIREMTVMNMGNYAHGNQPIQHMIYLYDYAGQPWKAQYWLRQVMDRMYTPGPDGYCGDEDNGQTSAWYVFSALGFYPVCPGTDEYVMGTPLFKKATLHFENGNSLVIDAPNNSTENFYIDSMSFNGADHTKNYLRHEDLFKGGTIKVDMSNRPNLNRGTKEEDMPYSFSKE
[1]
  Km: 10000 µM
  kcat: 0.147 s⁻¹
[2]
  Km: 960 µM
  kcat: 0.000233 s⁻¹
[3]
  kcat/Km: 10300 M⁻¹ s⁻¹
[4]
  kcat/Km: 14.3 M⁻¹ s⁻¹
[5]
  kcat/Km: 0.25 M⁻¹ s⁻¹

B2: Alpha-1,2-mannosidase (BT_3990) (Bacteroides thetaiotaomicron), Q8A0N1 E585A (protein)
chain: MKRLLLIACILNCTLLSQAKDWTQYVNPLMGSQSTFELSTGNTYPAIARPWGMNFWTPQTGKMGDGWQYTYTANKIRGFKQTHQPSPWINDYGQFSIMPIVGQPVFDEEKRASWFAHKGEVATPYYYKVYLAEHDIVTEMTPTERAVLFRFTFPENDHSYVVVDAFDKGSYIKIIPEENKIIGYTTRNSGGVPENFKNYFIIEFDKPFTYKATVENGNLQENVAEQTTDHAGAIIGFKTRKGEQVNARIASSFISFEQAAANMNELGKDNIEQLAQKGKDAWNQVLGKIEVEGGNLDQYRTFYSCLYRSLLFPRKFYELDANGQPIHYSPYNGQVLPGYMFTDTGFWDTFRCLFPLLNLMYPSVNKEMQEGLINTYLESGFFPEWASPGHRGCMVGNNSASILVDAYMKGVKVDDIKTLYEGLIHGTENVHPEVSSTGRLGYEYYNKLGYVPYDVKINENAARTLEYAYDDWCIYRLAKELKRPKKEISLFAKRAMNYKNLFDKESKLMRGRNEDGTFQSPFSPLKWGDAFTEGNSWHYTWSVFHDPQGLIDLMGGKEMFVTMMDSVFAVPPIFDDSYYGQVIHAIREMTVMNMGNYAHGNQPIQHMIYLYDYAGQPWKAQYWLRQVMDRMYTPGPDGYCGDEDNGQTSAWYVFSALGFYPVCPGTDEYVMGTPLFKKATLHFENGNSLVIDAPNNSTENFYIDSMSFNGADHTKNYLRHEDLFKGGTIKVDMSNRPNLNRGTKEEDMPYSFSKE
[6]
  Km: Not Active
  kcat: Not Active
[7]
  Km: 2300 µM
  kcat: 0.00733 s⁻¹
[8]
  kcat/Km: 9330 M⁻¹ s⁻¹
[9]
  kcat/Km: 5.5 M⁻¹ s⁻¹
[10]
  kcat/Km: 3.17 M⁻¹ s⁻¹
